# Reference: the nanobody polyreactivity screen of Harvey et al. (2022)
# Experiment: yeast display, Sf9 membrane polyspecificity reagent, FACS + sequencing; frameworks hold sequencing errors
# Outline: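 In a synthetic yeast display library (Saccharomyces cerevisiae BJ5465), nanobody expression was induced with galactose for 36–48 hours. FACS gates were set low and high (top ~1%) using anti-HA fluorescence for expression and streptavidin fluorescence for binding of the Sf9 membrane reagent. Each polyreactivity label is drawn from the gate of origin.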
row,Sequence,polyreactivity (PSR sort gate)
1,QVQLVESGGGLVQAGGSLRLSCADSGSIFRSYDMGRYSQAPGKERELVAGISYSGGSTYYADSVKRRFTISRDNAKNTVYLQMNSLKPEDTAVYYCNVDGGTYFFFVGAWGEYDYWGQGTQVTVSS,low polyreactivity
2,QVQLVESGGGLVQAGGSLRLSCAASGSIFPIYAMGWYRQAPGKERELVAAINRSGGSTYYADSGKGRFTISRDHAKTTVYLQMNSLKPEETAVYDCNADYGYHNQLFRGYYGWSSDHWGQGTQVTVSS,low polyreactivity
3,QVQLVESGGGLVQAGGSLRLSCAASGRIFRYYAMGWYRQAPGKERELVAAITRGGSTNYADSVKGRFTISRDNAKNTVYLQMNSLKPEDTAVYYCATRQSWYPRWMDYWGQGTQVTVSS,high polyreactivity
4,QVQLVESGGCLVQAGGSLRLSCAASGLIFYTYAMGWYRQAPGKERELVASISSGGDSTYYADSVKGRFTISRDNAKNTVYLQMNSLKPEDTAVYYCNADYYYSYPYTYYYWGQGTQVTVSS,low polyreactivity
5,QVQLLESGGGLVQAGGSLRLSFASSGSIFHPYAMGWYRQAPGKERELVAAITSGGSTYYADSVKGLFTISRDNAKNTDLLQMNSLNPEDNAVYYCAKDFDIYYSKYDYWGQGTQVTVSS,low polyreactivity
6,QVKLVESGGGLVQAGGSLRLSLQPPDSPSTTMLWDGIDRRLAKKGSWLPVFLPSGGTTYADSVKGRFTISRDNAKYTVYLQMNSLKPEDTAVYYCNADLSDVAVTDHDYWGQVTQVTVSS,low polyreactivity
7,QVQLVESGGGLVQAGGSLRLIFAASGFTFGGYAMGWYRQGPGKERELVAGISYRGGSTYYADSVKGRFTISRDNAKNTVYLQMNSLKPEDTAVYYCAADRGYPGKVDYWGQGTQVTVSS,low polyreactivity
8,QVQLVESGGGLVQAGGSLRLSCAASGITFYRYAVGWYRQAPGKERELVAAISCRGGRTYYADSVKGRFTISRDNAKKTVYLQMISLKPEDTAVDYCAAVASRIRGWLDITAYDYWGQGTQVTVSS,high polyreactivity
9,QVQLVESGGGLVQAGVSLRLSCAASGNTFWVYAKGSYRQAPGKARELVAAMTRGGSTNYEDSVKGRFTISRDNAKNTVYFQMNSLKPEDTAGYYCAAESFIYFPYKMDYWGQGTQVTVSS,low polyreactivity
10,QVQLVESGGGLVQAGGSLRLSCAASGSIFRSYAMGWYRQAPGKERELVAAISSGGRTKYADSVKGRFTISRDNAKNTVYLQMNSLKPEDTAVYYCAARVNVKYYGFYYWGQGTQVTVSS,high polyreactivity
11,QVQLVESGGGLVQAGGSLRLSCAASGITFGSNAMGWYRQAPGKERELVAAIRYSTGSTYYADSVKGRFTISRDNAKNTVYLQMNRLKPEDTAVYYCAKGKNRYTWYGMGYWGQGTQVTVSS,high polyreactivity
12,QVQLVESGGCLFQAGGSLRLSCAASGFIFGTYAIGWYRQAPGKERELVAAISVGRGSTYYADSVKGRFTISRDNAKNTVYLQMNSLKPEDTAVYYCAAVQLYQKHQITYVAHEYWGHGTQVTVSS,low polyreactivity
13,QVQLVESGGGLVQAGGSLRLSCAASGLIFPGYAMGWYRPAPGKERELVAAISGSGGSTYYADSVKGRFTISRDNAKNTVYLQMNSLKPEDTAVYYCSTSGPQYYSRNFDYWGQGTQVTVSS,low polyreactivity
14,QVQLVESGGGLVQAGGSLRLSCAASGSTFTNYAMGWYRQAPGKERELVAAISSSGGRTYYADSVKGRFTISRDNAKNTVYLQMNSLKPEDTAVYYCARVVRPSVGDYWGQGTQVTVSS,high polyreactivity
15,QVQLVESGGGLVQAGGSLRLSCAASGSTFVPNDMGWYRQAPGKERELVAAISYSGGSTYYADSVKGRFTISRDNAKNTVYLQMNSLKPEDTAVYYCAAEKYLGELDYWGQGTQVTVSS,low polyreactivity
16,QVQLVESGGGLVQAGGSLRLSCAASGFTFYNYAMGWYRQAPGKERELVAAISRSGRTYYADSVKGRFTISRDNAKNTVYLQMNSLKPEDTAVYYCAAGHGGDPGSGYWGQGTQVTVSS,high polyreactivity
17,QVQLVESGGGLVQAGGSLRLSCAASGRTFVPYVMGWYRQAPGKERELVATINWSGGSTYYADSVKGRFTISRDNAKNTVYLQMNSLKPEDTAVYYCAADYYWTYSYYYERFDYWGLGTQVTVSS,low polyreactivity
18,QVQLLESGGGLVQAGGSLRLSCAASGYTFAYYAMGWYRQAPGKERELVATISWSDGSTYYADSVKGRFTISRDNAKNTVYLQMNSLKPEDTAVYYCAADTPGYYTYYGFGYWGQGTQVTVSS,low polyreactivity
19,QVQLVESGGGLVQAGGSLRLSCAASGRTFDRNAMGWYRQAPGKERELVAAITSRGGRTYYADSVKGRFTISRDNAKNTVYLQMNSLKPEDTAVYYCAADLFSSRVRSNFDYWGQGTQVTVSS,high polyreactivity
20,QVQLVESGGGLVQAGGSLRLSCAASGSTFYSYAMGWYRQAPGKERELVAAISSSSGSTYYADSVKGRFTISRDNAKNTVYLQMNSLKPEDTAVYYCNRGRRYSHKYDYWGQGTQVTVSS,high polyreactivity
21,QVQLEESGGGLVQAGGSLRLSCAASGLTFATYAIGWYRQAPGKERELVAAISRSGGRTYFADSVKGRFTISRDNAKNTVYLQMNSLKPEDTAVYYCNADFYASDDYWGQGTQVTVSS,high polyreactivity
22,QVQLVESGGGLVQAGGSLRLSCAASGRIFRYYAMGWYRQAPWKERELVAVINWSGGSTYYADSVKGRFTISRDNAKNTVYLLMNSLKPEDTAVYYCNVYSVYPQFNYWGQGTQVTVSS,high polyreactivity

row,Sequence,polyreactivity (PSR sort gate)
1,QVQLVESGGGLVQAGGSLRLSCAASGSIFGPNPMGWYRQAPGKERELVAAISWTGGRTYYADSVKGRFTISRDNAKNTVYLQMNSLKPEDTAVYYCAAARYLSGGYEKYDYWGQGTQVTVST,low polyreactivity
2,QVQLVESGGGLVQAGGSLRLSCAASGFTFDDYVMGWYRQAPGKERELVAAISRSGGSTYYADSVKGRFTISRDNAKNTVYLQMNSLKPEDTAVYYCAARTYSWGDWGQGTQVTVSS,high polyreactivity
3,QVQLVESGGGLVQAGGSLRLSCAASGSIFLSYDMGWYRQAPGKERELVAAITQSGGSTYYADSVKGRFTISRDNAKNTVYLQMNSLKPEDTAVYYCAADYGYFPQETYPTYGYYYWGQGTQVTVSS,low polyreactivity
4,QVQIVESGGGLVQAGGSLRLSCAASGRTIGVYAMGWYRQAPRKERELVAAITGDGTKDYADSVKGRFRFSRAISKITVYLQMNSLKPEDTAVYYCAVGGAGSDDYWGQGTQVTVSS,low polyreactivity
5,QVQLVESGGGLVQAGGSLRLNCAASGRIFKYNTRGWYRQAPGKERQLVAAISLSTGSGGGTRYADSVKGRFTISRDNAKNTVYLKMNSLNPEDTAVYYCAARHRYTNEYDYWGQGTQVTVSS,low polyreactivity
6,QVQLVQSRGGLVQAGGSLRLSCSASGFIFIYNVMGWYRQAPGKERDMVAAINRGGSTKYADSVKGRFTISRDNAKITVYLQMNSLKPEDSAVYYCAARYDGSRYHYDGYDYWGQGTQVTVSS,low polyreactivity
7,QVQLVESGGGLVQAGGSLRLSCAASGFIFNRYAMGWYRQAPGKERELVAAISFSGGSTYYADSVKGRFTISRDNAKNTVYLQMNSLKPEDTAVYYCAASWYRYGYWGQGTQVTVSS,high polyreactivity
8,QGQLVESGGALVQAGGSLRLSCAASGRILRYYAMGWNRQAPGKERELVAVITSSDGSTYYADSVKGRFTISRDNAKNTVYLQQNSLKPEDTAVDYCAAAPLWRVASWWDPYRRYDYWGQGTQVTVSS,low polyreactivity
9,QEQLQESGGGLVQAGGSLCLSCAASGTIFFDGDMGWYRQAPGKEREFVAAINPGGSAYYADSVKGRLPLAAITHTVYLQMNSLKPEDTAVYYCAAKLFDVYGYYYWGQGTHVTVSS,low polyreactivity
10,QVQLVESGGGLVQAGGSLRLSCAASGRTFKYYTMGWYRQAPGKEREFVAAITSSGGRTYYADSVKGRFTISRDNAKNTVYLQMNSLKPEDTAVYYCAASTYRVWLAPATLSRYDYWGQGTQVTVSS,high polyreactivity
11,QVQLVESGGGLVQAGGSLRLSCAASGSTFNGYAMGWYRQAPGKERELVAAITSSGSRTYYADSVKGRFTISRDNAKNTVYLQMNSLKPVDTAVYYCNAGKLARTYFRSSSVSPGDYWGQGTQVTVSS,high polyreactivity
12,QVQLVESGGGLVQAGGSLRLSCAASGRIFGKNAMGWYRQAPGKERELVAAISSSGGSTYYADSVKGRFTISRDNAKNTVYLQMNSLKPEDTAVYYCAAGVTRGMDYWGQGTQVTVSS,high polyreactivity
13,QVQLVESGGGLVQAGGSLRLSCAASGSIFRPNTMGWYRQAPGKERELVAAIRAGGRTYYADSVKGRFTISRDNAKNTVYLQMNSLKPEDTAVYYCNAVPASASTWRGQVGYDYWGQGTQVTVSS,high polyreactivity
14,QVQLVESGGGLVQEGGSLRLSCADSGSTFHYYTMGWYRQAPGKERELVAAISWRGTSTYYADSVKGRFTISRDNAKNTVYLQMNSLKPEDTAVYYCAVRSSPGAGYYYWGQGTQVTVSS,high polyreactivity
15,QVQLVESGGGLVHAGGSLRLSCAASGSIFDWNAMGWYTQAPGKERELVATISWDGGSTYYADSVKGRFTISRDNAKNTVYLQMNSLKPEDTAVYYCATVFTGKPAFYARTKYDYWGQRTQVTVSS,low polyreactivity
16,QVQLVESGGGLVQAGGSLRLSCAASGNILLFNAMGWYRQAPGKERELVATINQSGGRTYYADSVKGRFTISRDNAKNTVYLQMNSLKPEDTAVYYCAATRRYPPYFHHYDYWGQGTQVTVSS,low polyreactivity
17,QVQLVESGGGLVQAGGSLRLSCAASGRIFQPNAMGWYRQAPGKEREFVAAISSSGGYTFYADSVKGRFTISRDNAKNTVYLQMNSLKPEDTAVYYCAKRYGYTEYFYWGQGSQVTVSS,high polyreactivity
18,QVQLVESGGGLVQAGGSLRLSCAASGIIFAHNAMGWYRQAPGKERELVAAISKRGGSTYYADSVKGRFTISLDNAKNTVYLQMNSLKPEDTAVYYCAAASFTWVSRGYDYWGQGTQVTVAS,high polyreactivity
19,QVQLVESGGGLVQAGGSLRLSCAASGRTFHQYAKGWYRQAPGKERELVAAISRSGGRTYYADSVKGRFTISRDNAKNTVYLQMNSLIPEDSAVYYCNRDIGGTSVLDDYWGQGTQVTVSS,low polyreactivity
20,QVQLVESGGGLVQAGGSLRLSCAASGSIFYRYAMGWYRQAPGKERELVAAIRSRTGRTYYADSVKGRFTITRDNAKNTVYLQMNSLKQEDTAVYYCAADKYFSARFDYWGQGTQVTVSS,high polyreactivity
21,QVQLVESGGGLVQAGGSLRISCAASGFIFRYYTMGWYRQAPGKERELVATITSGGSTYYADSVKGRFTISRDNAKNTVYLQMNSLKPEDTAVYYCAKVRDVLWRFNYWGQGTEVTVSS,high polyreactivity
